Results as given in patent US10064928B2, “Peptides and combination of peptides for use in immunotherapy against CLL and other cancers” (IMMATICS BIOTECHNOLOGIES GMBH, priority 2015, dated 2018).

Biological target: HLA-A*02:01 (Homo sapiens, UniProt P04439, D140Y/D185E/D98H/E176V/E277Q/G131W/G231S/I119V/I121R/I166T/I218V/L300P/L318F/N151K/N90K/P208A/P217A/Q86G/Q94H/R138H/R169H/T345S)
Assay: MHC binding assay (UV-ligand exchange, beta2m ELISA)
Conditions: binding of HLA-class I restricted peptides to HLA-A*02:01, β2m ELISA
In short: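 Exchange yield, UV-ligand exchange: 100-fold diluted samples on streptavidin plates, 1 h at 37 °C; HRP anti-β2m 1 h at 37 °C; TMB read at 450 nm.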

Substance	Peptide Exchange (MHC class I binding score, peptide exchange yield)
92 (ILEPLNPLL; listed as Homo sapiens) [compound 92]	“+++” (≥50 = +++)
338 (FLDMTNWNL; listed as Homo sapiens) [compound 338]	“++++” (≥75% = ++++)
41 (FLDPSLDPLL; listed as Homo sapiens) [compound 41]	“+++” (≥50 = +++)
7 (ALLERTGYTL; listed as Homo sapiens) [compound 7]	“+++” (≥50 = +++)
319 (QVIPQLQTV; listed as Homo sapiens) [compound 319]	“+++” (≥50 = +++)
123 (LLLAEAELLTL; listed as Homo sapiens) [compound 123]	“++” (≥20% = ++)
158 (SLPEAPLDV; listed as Homo sapiens) [compound 158]	“+++” (≥50 = +++)
267 (TLLDWQDSL; listed as Homo sapiens) [compound 267]	“+++” (≥50 = +++)
11 (ALFTFSPLTV; listed as Homo sapiens) [compound 11]	“+++” (≥50 = +++)
358 (FLTDYLNDL; listed as Homo sapiens) [compound 358]	“+++” (≥50 = +++)
62 (GIIDGSPRL; listed as Homo sapiens) [compound 62]	“+++” (≥50 = +++)
316 (MLLEHGITL; listed as Homo sapiens) [compound 316]	“+++” (≥50 = +++)
133 (YLLSGDISEA; listed as Homo sapiens) [compound 133]	“+++” (≥50 = +++)
159 (SLQEEKLIYV; listed as Homo sapiens) [compound 159]	“+++” (≥50 = +++)
174 (VLAELPIIVV; listed as Homo sapiens) [compound 174]	“+++” (≥50 = +++)
309 (ILYGTQFVL; listed as Homo sapiens) [compound 309]	“+++” (≥50 = +++)
383 (YLLREWVNL; listed as Homo sapiens) [compound 383]	“++++” (≥75% = ++++)
347 (YLGPVSPSL; listed as Homo sapiens) [compound 347]	“+++” (≥50 = +++)
35 (FILPSSLYL; listed as Homo sapiens) [compound 35]	“+++” (≥50 = +++)
230 (FLQDSKVIFV; listed as Homo sapiens) [compound 230]	“+++” (≥50 = +++)
139 (NLTDVVEKL; listed as Homo sapiens) [compound 139]	“+++” (≥50 = +++)
53 (FLWQHVELVL; listed as Homo sapiens) [compound 53]	“+++” (≥50 = +++)
364 (KMDWIFHTI; listed as Homo sapiens) [compound 364]	“+++” (≥50 = +++)

Substance	Peptide Exchange (MHC class I binding score, peptide exchange yield)
382 (YLLPLLQRL; listed as Homo sapiens) [compound 382]	“++++” (≥75% = ++++)
113 (KVPAEEVLVAV; listed as Homo sapiens) [compound 113]	“+++” (≥50 = +++)
99 (ILIFHSVAL; listed as Homo sapiens) [compound 99]	“+++” (≥50 = +++)
229 (FLLNLQNCHL; listed as Homo sapiens) [compound 229]	“++++” (≥75% = ++++)
232 (FMHQIIDQV; listed as Homo sapiens) [compound 232]	“++++” (≥75% = ++++)
227 (FLAEASVMTQL; listed as Homo sapiens) [compound 227]	“+++” (≥50 = +++)
177 (VLDDRELLL; listed as Homo sapiens) [compound 177]	“+++” (≥50 = +++)
44 (FLLSINDFL; listed as Homo sapiens) [compound 44]	“+++” (≥50 = +++)
284 (LLSAAEPVPA; listed as Homo sapiens) [compound 284]	“++” (≥20% = ++)
79 (GLQAKIQEA; listed as Homo sapiens) [compound 79]	“+++” (≥50 = +++)
67 (GLDDVTVEV; listed as Homo sapiens) [compound 67]	“++” (≥20% = ++)
51 (FLVEAPHDWDL; listed as Homo sapiens) [compound 51]	“++++” (≥75% = ++++)
182 (VLLSVPGPPV; listed as Homo sapiens) [compound 182]	“+++” (≥50 = +++)
345 (YLIEPDVELQRI; listed as Homo sapiens) [compound 345]	“+++” (≥50 = +++)
251 (LLYDNVPGA; listed as Homo sapiens) [compound 251]	“+++” (≥50 = +++)
260 (SLDDVEGMSV; listed as Homo sapiens) [compound 260]	“+++” (≥50 = +++)
27 (AVLGLVWLL; listed as Homo sapiens) [compound 27]	“+++” (≥50 = +++)
34 (YLPYIFPNI; listed as Homo sapiens) [compound 34]	“+++” (≥50 = +++)
98 (SLIKYFLFV; listed as Homo sapiens) [compound 98]	“+” (≥10% = +)
45 (FLPELPADLEA; listed as Homo sapiens) [compound 45]	“+++” (≥50 = +++)
108 (VIYTLIHYI; listed as Homo sapiens) [compound 108]	“+++” (≥50 = +++)
321 (RLLEFELAQL; listed as Homo sapiens) [compound 321]	“+++” (≥50 = +++)
270 (TVLPVPPLSV; listed as Homo sapiens) [compound 270]	“+++” (≥50 = +++)

Substance	Peptide Exchange (MHC class I binding score, peptide exchange yield)
274 (VLLEYHIAYL; listed as Homo sapiens) [compound 274]	“+++” (≥50 = +++)
63 (SLAHVAGCEL; listed as Homo sapiens) [compound 63]	“+++” (≥50 = +++)
191 (YIFDGSDGGV; listed as Homo sapiens) [compound 191]	“+++” (≥50 = +++)
344 (VLAFENPQV; listed as Homo sapiens) [compound 344]	“+++” (≥50 = +++)
346 (VLVQVSPSL; listed as Homo sapiens) [compound 346]	“+++” (≥50 = +++)
241 (ILGDILLKV; listed as Homo sapiens) [compound 241]	“+++” (≥50 = +++)
156 (SLNIGDVQL; listed as Homo sapiens) [compound 156]	“+++” (≥50 = +++)
215 (VMQDIVYKL; listed as Homo sapiens) [compound 215]	“+++” (≥50 = +++)
231 (FLYIRQLAI; listed as Homo sapiens) [compound 231]	“+++” (≥50 = +++)
166 (TLDPNQVSL; listed as Homo sapiens) [compound 166]	“++” (≥20% = ++)
19 (QVMEKLAAV; listed as Homo sapiens) [compound 19]	“+++” (≥50 = +++)
354 (FIMDDPAGNSYL; listed as Homo sapiens) [compound 354]	“+++” (≥50 = +++)
190 (VVMGTVPRL; listed as Homo sapiens) [compound 190]	“+++” (≥50 = +++)
304 (LAIVPVNTL; listed as Homo sapiens) [compound 304]	“+” (≥10% = +)
244 (ILQALAVHL; listed as Homo sapiens) [compound 244]	“+++” (≥50 = +++)
375 (VLWFKPVEL; listed as Homo sapiens) [compound 375]	“+++” (≥50 = +++)
180 (LLKDGPEIGL; listed as Homo sapiens) [compound 180]	“++” (≥20% = ++)
207 (IIADLDTTIMFA; listed as Homo sapiens) [compound 207]	“+++” (≥50 = +++)
93 (ILFNTQINI; listed as Homo sapiens) [compound 93]	“+++” (≥50 = +++)
223 (ALWVSQPPEI; listed as Homo sapiens) [compound 223]	“+++” (≥50 = +++)
262 (SLWNAGTSV; listed as Homo sapiens) [compound 262]	“+++” (≥50 = +++)
